Measurements: article PMC11169341

These sequences were tested against T1, B7H3 on Weri-RB1 cells (UniProt Q5ZPR3) (assay: flow cytometry). Conditions: FITC aptamer, ABB: AWB (composition not given) + 0.1 mg/ml yeast tRNA, 0.1 mg/ml salmon sperm DNA, 5% FBS, 1 mg/ml BSA, 60 min, 0-500 nM …, flow binding assay on ice, d.
T1 sequence: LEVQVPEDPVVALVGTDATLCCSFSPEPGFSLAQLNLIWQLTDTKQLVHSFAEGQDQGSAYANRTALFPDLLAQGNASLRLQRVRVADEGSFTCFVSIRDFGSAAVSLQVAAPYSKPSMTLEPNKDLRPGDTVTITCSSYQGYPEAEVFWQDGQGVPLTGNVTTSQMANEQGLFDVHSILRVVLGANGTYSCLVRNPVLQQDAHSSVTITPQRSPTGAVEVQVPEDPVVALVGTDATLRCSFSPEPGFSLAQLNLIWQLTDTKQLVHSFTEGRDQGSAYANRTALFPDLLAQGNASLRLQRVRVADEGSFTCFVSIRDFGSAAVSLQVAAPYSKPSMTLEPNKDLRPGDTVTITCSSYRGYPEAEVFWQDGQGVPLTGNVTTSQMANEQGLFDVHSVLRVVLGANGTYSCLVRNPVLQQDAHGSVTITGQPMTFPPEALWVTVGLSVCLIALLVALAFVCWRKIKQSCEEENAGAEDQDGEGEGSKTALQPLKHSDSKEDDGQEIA
“TAGGGAAGAGAAGGACATATGATACAGCACGGTATGACGAGTCCATTGTGTGTGCAGCTCGCTAATTGACTAGTACATGACCACTT [VRF-HS_B7H3-01]” showed a Kd of 32.1 nM.
Work on “TAGGGAAGAGAAGGACATATGATATAAGTGACACATCAATCTCATGCGGATGAACCAGTGCGTTTGACTAGTACATGACCACTT [VRF-HS_B7H3-03]” yielded a Kd of 46.6 nM.
“TAGGGAAGAGAAGGACATATGATTGAGAAGTCACGCCACTTACCTGCGCTCAAAACCTCAGAATTGACTAGTACATGACCACTT [VRF-HS_B7H3-05]” gave a Kd of 50.6 nM.
Work on “TAGGGAAGAGAAGGACATATGATCGCCCCTCTTTTCGATTTCAAGCTCCTAACCCACACCTCTTTGACTAGTACATGACCACTT [VRF-HS_B7H3-02]” yielded a Kd of 47.2 nM.
“TAGGGAAGAGAAGGACATATGATTGCCCCTGACACTTACACGCCACTATCAAGGCACACGCCATTGACTAGTACATGACCACTT [VRF-HS_B7H3-04]” gave a Kd of 51.4 nM.
